Measured values published in patent publication US7611721B1, “Adjuvant combination formulations” (priority 2000, dated 2009).
Where two headings read alike, the source gives them in different places.

Experiments:
T1SP10MN(A) (−Cys) [1] = system: T1SP10MN(A) (−Cys)
Method: Mice were immunized subcutaneously in the rump, in a total volume of 0.2 ml equally divided on each side of the tail. Immunizations were administered at varying time intervals, as indicated below. Antigen and cytokines were diluted in phosphate buffered saline to the appropriate concentrations and formulated with adjuvants less than 16 hours prior to immunization, under sterile conditions. Vaccines were mixed by gentle agitation, and stored at 4° C. Formulations were mixed by vortex immediately prior to immunization.
Animals were bled prior to initial immunization, and at indicated time points. Serum was analyzed from individual mice, or as pools from mice within groups.
For analysis of HIV peptide-specific antibody and subclass distribution, peptide was suspended in either carbonate buffer (15 mM Na2CO3, 35 mM NaHCO3, pH 9.6), or PBS, at a concentration of 1 μg/ml and plated to 96 well microtiter plates (Nunc) in a volume of 100:1. After overnight incubation at 37° C., plates were washed, and blocked (0.1% gelatin/PBS) at room temperature for 2-4 hours. ELISA plates were washed with wash buffer (PBS, 0.1% Tween™20) before addition of serially diluted serum (PBS, 0.1% gelatin, 0.05% Tween™20, 0.02% sodium azide). After a four hour incubation, wells were washed and appropriate dilutions of biotinylated anti-isotype/subclass antibodies were added for incubation at 4° C. overnight. Wells were washed and incubated with strepavidin-conjugated horseradish peroxidase. After incubation, wells were washed, and developed with ABTS. Wells were read at 405 nm. Titers were standardized using control sera.
Reciprocal anti-HIV peptide-specific IgG endpoint titers were measured from pooled serum (n=5 Balb/c) at the indicated time points after initial immunization. Mice were immunized subcutaneously in the rump with 25 μg of T1SP10MN(A) (−Cys), unless otherwise indicated, on day 0, and on day 27. For recipients of Freund's adjuvants, mice were primed with peptide emulsified in CFA, and boosted with IFA. MPL™ SE was provided as an emulsion containing 2% squalene oil and 50 μg MPL™ per dose. SE is an oil-in-water emulsion vehicle consisting of squalene, glycerol, and an emulsifying agent. Recombinant murine IL-12 was delivered at 50 ng/mouse. Recombinant murine GM-CSF was delivered at 10 μg/mouse.
Reciprocal endpoint IgG subclass titers were measured from pooled serum (n=5 Balb/c) six weeks after initial immunization, two weeks after secondary immunization. Mice were immunized subcutaneously in the rump with 25 μg of peptide, unless otherwise indicated. For recipients of Freund's adjuvants, mice were primed with peptide emulsified in complete Freund's adjuvant, and boosted with incomplete Freund's adjuvant on weeks four and six. MPL™ SE was provided as an emulsion containing 2% squalene oil and 50 μg MPL™ per dose. SE is an oil-in-water emulsion vehicle consisting of squalene, glycerol, and an emulsifying agent. Recombinant murine IL-12 was delivered at 50 ng/mouse. Recombinant murine GM-CSF was delivered at 10 μg/mouse.
Mice were immunized subcutaneously in the rump, in a total volume of 0.2 ml equally divided on each side of the tail. Immunizations were administered on days 0 and 21 with 25 μg of the HIV peptide, together with the indicated amount of adjuvant(s).
Reciprocal anti-peptide IgG endpoint titers were measured from either geometric means from individual mice (GMT) or from pooled serum (n=5 Balb/c), obtained 14 days after the second immunization. IgG1 and IgG2a subclass endpoint titers were also measured from pooled serum.

spleen cells [2] = assay: Secretion of IL-4 by spleen cells (ELISA); type: cell-based, Balb/c mice
Method: (§1) For proliferation assays and in vitro cytokine analysis, spleen cells were obtained from mice at the indicated time points. Single cell suspensions were prepared from pools of 3-5 mice as indicated in Results. For proliferation and cytokine analysis, cells were suspended in round bottom 96 well culture plates precoated overnight with HIV peptide antigens, control proteins, or RPMI-10 only. Spleen cells were added at 5×10^5 cells/well using culture medium having 2× supplements. Cell culture supernatants were harvested from triplicate wells for cytokine analysis three or six days after culture initiation. Immediately after supernatant harvest, cultures were pulsed with ^3H-thymidine for 18-24 hours, and harvested to quantify cell proliferation.
(§2) For cytokine analysis, cell culture supernatants were added to wells coated with BVD6-11B11 (for anti-IL4), or R4-6A2 (for interferon-gamma). After incubation and washing, wells were developed using biotin-labeled BVD6-24G2 (for IL4) or XMG 1.2 (for interferon-gamma). The concentration of cytokines was determined using a standard curve prepared from recombinant murine interferon-gamma or interleukin-4. All cytokine reagents were purchased from Pharmingen (San Diego, Calif.).
(§3) Interleukin-4 secreted into culture by spleen cells stimulated with 25 μg T1SP10MN(A) (−Cys) was measured. Spleen cells were harvested from pools of five Balb/c female mice and cultured with the indicated antigenic stimuli (50 ng IL-12, 10 μg GM-CSF, 50 μg MPL™ as indicated) for either three or six days. Interleukin-4 levels were determined by ELISA, and compared to a standard having a known concentration. Blank wells indicate that the assay could not detect Interleukin-4 from those culture conditions. The lower limit of detection sensitivity was 22 Units/ml.
Cells were cultured for a total of 96 hours. Cell culture supernatants were analyzed for IL-4 by ELISA. All values were after subtraction from those determined from supernatants of cells stimulated with 10 μg of an irrelevant protein (lysozyme). Results which were below the limit of detection, after subtraction from stimulation induced with lysozyme are indicated as “bd”. The adjuvants were 40 ng IL-12, 10 μg GM-CSF and 50 μg MPL™.

T1SP10MN(A) (−Cys) [3] = conditions: Experiment 3; pooled, n=5 Swiss-Webster; 15 days after secondary immunization
Method: (§4) The protocols of Experiment 2 were followed, with Swiss-Webster mice used instead of Balb/c mice. Only reciprocal anti-peptide IgG endpoint titers and vaginal lavage endpoint reciprocal endpoint IgG and IgA antibody titers were measured in this experiment.
Aqueous MPL™ was delivered at 50 μg per dose. Recombinant murine IL-12 was delivered at 40 ng/mouse. Recombinant murine GM-CSF was delivered at 10 μg/mouse.

spleen cells [4] = assay: Secretion of interferon-gamma by spleen cells (ELISA); type: cell-based, Balb/c mice; conditions: for Secretion of Interferon-gamma, Con A 1 μg/ml: Experiment 1
Method: as §1, §2
as §3, with “Interferon-gamma” for “Interleukin-4”, “(−Cys).” for “(−Cys) was measured.”, “(the same” for “(50 ng IL-12, 10 μg GM-CSF, 50 μg MPL™”, “in Example 6)” for “indicated)”, “4 picograms/ml.” for “22 Units/ml.”
Cells were cultured for a total of 96 hours. Cell culture supernatants were analyzed for interferon-gamma by ELISA. All values were after subtraction from those determined from supernatants of cells stimulated with 10 μg of lysozyme. Results which were below the limit of detection, after subtraction from stimulation induced with lysozyme are indicated as “bd”. The adjuvants were the same as those in Example 12.

T1SP10MN(A) (−Cys) [5] = conditions: Experiment 3, 14 days after second immunization
Method: as §4
Reciprocal anti-T1SP10MN(A) (−Cys) IgG endpoint titers were measured from geometric means from individual Swiss-Webster mice (GMT), obtained 14 days after the second immunization. IgG1 and IgG2a subclass endpoint titers were also measured from pooled serum. For recipients of Freund's adjuvants, mice were primed with peptide emulsified in CFA, and boosted with IFA. […] Aqueous MPL™ was delivered at 50 μg per dose. Recombinant murine IL-12 was delivered at 40 ng/mouse. Recombinant murine GM-CSF was delivered at 10 μg/mouse.

spleen cells [6] = type: cell-based, Balb/c mice
Method: as §1
Groups of five Balb/c female mice were immunized with 25 μg T1SP10MN(A) (−Cys) and the indicated adjuvants on days 0 and 28. Spleen cells were established in culture on day 56, and harvested for measurement of ^3H-thymidine incorporation 96 hours later. Mice were immunized with 50 ng IL-12, […], 50 μg MPL™ in an aqueous formulation, or as a stable emulsion with 2% SE. Data are presented as the delta cpm values as compared to proliferation values measured from cells grown in culture without stimulation.
Cells were cultured for a total of 96 hours. ^3H-thymidine was added to cultures for the last 18 hours. Data are presented as a proliferation index normalized to cells stimulated in culture with ConA ([mean cpm Antigen/mean cpm ConA]−[mean cpm medium/mean cpm ConA])×100. As a result, cells cultured in medium have a background proliferation of 0. Proliferation values less than cells grown in culture unstimulated are in parentheses.

[7] = Experiment 1, pooled serum n=5 Balb/c, 25 μg peptide s.c. day 0 and 27
[8] = Experiment 1, pooled serum n=5 Balb/c, six weeks after initial, two weeks after secondary immunization, 25 μg peptide
[9] = Experiment 2, pooled serum n=5 Balb/c, 14 days after second immunization
[10] = Experiment 4, individual Balb/c mouse, day 41, 13 days after secondary immunization (days 0 and 28)
[11] = Experiment 4, pooled serum n=5 Balb/c, day 41, 13 days after secondary immunization
[12] = Experiment 5, pooled serum n=5 Balb/c, immunized days 0 and 22, bled day 42
[13] = Experiment 2, 96 hours culture, after subtraction of lysozyme value
[14] = Experiment 2, 96 hours culture, after subtraction of lysozyme value, bd = below limit of detection
[15] = Experiment 1, immunized days 0 and 28, culture day 56, 96 hours
[16] = Experiment 2, 96 hours culture, values in parentheses are less than unstimulated cells

B1: GM-CSF: Recombinant murine granulocyte macrophage colony stimulating factor (protein, UniProt P01587 18-141, looked up)
Granulocyte-macrophage …: APTRSPITVTRPWKHVEAIKEALNLLDDMPVTLNEEVEVVSNEFSFKKLTCVQTRLKIFEQGLRGNFTKLKGALNMTASYYQTYCPPTPETDCETQVTTYADFIDSLKTFLTDIPFECKKPGQK
- Reciprocal anti-T1SP10MN(A) (-Cys) IgG endpoint titer, WEEK 4 (T1SP10MN(A) (−Cys) [1]; [7]): <100
- Reciprocal anti-T1SP10MN(A) (-Cys) IgG endpoint titer, WEEK 6 (T1SP10MN(A) (−Cys) [1]; [7]): 17,579
- Reciprocal anti-T1SP10MN(A) (-Cys) IgG endpoint titer, WEEK 8 (T1SP10MN(A) (−Cys) [1]; [7]): 12,537
- Reciprocal anti-T1SP10MN(A) (-Cys) IgG1 endpoint titer (T1SP10MN(A) (−Cys) [1]; [8]): 1,783
- Reciprocal anti-T1SP10MN(A) (-Cys) IgG2a endpoint titer (T1SP10MN(A) (−Cys) [1]; [8]): <100
- Reciprocal anti-T1SP10MN(A) (-Cys) IgG2b endpoint titer (T1SP10MN(A) (−Cys) [1]; [8]): <100
- Reciprocal anti-T1SP10MN(A) (−Cys) IgG (GMT) endpoint titer (T1SP10MN(A) (−Cys) [1]; Experiment 2, geometric mean of individual Balb/c mice, 14 days after second immunization): 1,756
- Reciprocal anti-T1SP10MN(A) (−Cys) IgG1 (pool) endpoint titer (T1SP10MN(A) (−Cys) [1]; [9]): 14,538
- Reciprocal anti-T1SP10MN(A) (−Cys) IgG2a (pool) endpoint titer (T1SP10MN(A) (−Cys) [1]; [9]): 4,864
- Reciprocal anti-T1SP10MN(A) (−Cys) IgG (pool) endpoint titer (T1SP10MN(A) (−Cys) [1]; Experiment 2, pooled serum n=5 Balb/c, immunized days 0 and 21, 14 days after second immunization): 27,333
- IgG serum titer specific for T1SP10MN(A) (−Cys), Mouse #1 (T1SP10MN(A) (−Cys) [1]; [10]): 50
- IgG serum titer specific for T1SP10MN(A) (−Cys), Mouse #2 (T1SP10MN(A) (−Cys) [1]; [10]): 50
- IgG serum titer specific for T1SP10MN(A) (−Cys), Mouse #3 (T1SP10MN(A) (−Cys) [1]; [10]): 50
- IgG serum titer specific for T1SP10MN(A) (−Cys), Mouse #4 (T1SP10MN(A) (−Cys) [1]; [10]): 50
- IgG serum titer specific for T1SP10MN(A) (−Cys), Mouse #5 (T1SP10MN(A) (−Cys) [1]; [10]): 50
- Geometric Mean IgG serum titer specific for T1SP10MN(A) (−Cys), GMT (T1SP10MN(A) (−Cys) [1]; Experiment 4, n=5 Balb/c, day 41, 13 days after secondary immunization): 50
- Reciprocal anti-T1SP10MN(A) (−Cys) IgG1 endpoint titer (T1SP10MN(A) (−Cys) [1]; [11]): 5,514
- Reciprocal anti-T1SP10MN(A) (−Cys) IgG2a endpoint titer (T1SP10MN(A) (−Cys) [1]; [11]): <100
- Reciprocal anti-T1SP10MN(A) (−Cys) IgG2b endpoint titer (T1SP10MN(A) (−Cys) [1]; [11]): <100
- Reciprocal anti-T1SP10MN(A) (−Cys) IgG GMT (T1SP10MN(A) (−Cys) [1]; Experiment 5, geometric mean n=5 Balb/c, immunized days 0 and 22, bled day 42): 5,133
- Reciprocal anti-T1SP10MN(A) (−Cys) IgG1 endpoint titer (T1SP10MN(A) (−Cys) [1]; [12]): 3,815
- Reciprocal anti-T1SP10MN(A) (−Cys) IgG2a endpoint titer (T1SP10MN(A) (−Cys) [1]; [12]): <1000
- Reciprocal anti-T1SP10MN(A) (−Cys) IgG2b endpoint titer (T1SP10MN(A) (−Cys) [1]; [12]): <1000
- Reciprocal anti-T1SP10MN(A) (−Cys) IgG endpoint titer (T1SP10MN(A) (−Cys) [1]; [12]): 11,639
- Secretion of IL-4, Con A 1 μg/ml (spleen cells [2]; Experiment 1, Three Day Cultures, detection limit 22 Units/ml): 159 Units/ml
- Secretion of IL-4, Con A 5 μg/ml (spleen cells [2]; [13]): 226 pg/mL
- Secretion of IL-4, HIV Peptide 1.1 μg/ml (spleen cells [2]; [14]): 36 pg/mL
- Secretion of IL-4, HIV Peptide 3.3 μg/ml (spleen cells [2]; [14]): 9 pg/mL
- Secretion of IL-4, HIV Peptide 10 μg/ml (spleen cells [2]; [14]): bd
- Vaginal lavage reciprocal anti-HIV peptide IgA endpoint titer (T1SP10MN(A) (−Cys) [3]): <10
- Vaginal lavage reciprocal anti-HIV peptide IgG endpoint titer (T1SP10MN(A) (−Cys) [3]): <10
- Secretion of Interferon-gamma, Con A 1 μg/ml (spleen cells [4]; Six Day Cultures): 7.3 picograms/ml
- Secretion of Interferon-gamma, Con A 1 μg/ml (spleen cells [4]; Three Day Cultures, detection limit 4 picograms/ml): 17.6 picograms/ml
- Secretion of Interferon-gamma, Con A 5 μg/ml (spleen cells [4]; [13]): 167 units/ml
- Secretion of Interferon-gamma, HIV Peptide 1.1 μg/ml (spleen cells [4]; [14]): 4 units/ml
- Secretion of Interferon-gamma, HIV Peptide 3.3 μg/ml (spleen cells [4]; [14]): 3 units/ml
- Secretion of Interferon-gamma, HIV Peptide 10 μg/ml (spleen cells [4]; [14]): 2 units/ml
- Reciprocal anti-HIV peptide IgG (GMT) endpoint titer (T1SP10MN(A) (−Cys) [5]; individual Swiss-Webster mice): 500
- Reciprocal anti-HIV peptide IgG1 (pool) endpoint titer (T1SP10MN(A) (−Cys) [5]; pooled serum Swiss-Webster): <1000
- Reciprocal anti-HIV peptide IgG2a (pool) endpoint titer (T1SP10MN(A) (−Cys) [5]; pooled serum Swiss-Webster): <1000
- Spleen cell proliferation, Con A 1 μg/ml (spleen cells [6]; [15]): 55,578 delta cpm
- Spleen cell proliferation, HIV Peptide 1.1 μg/ml (spleen cells [6]; [15]): 14,249 delta cpm
- Spleen cell proliferation, HIV Peptide 3.3 μg/ml (spleen cells [6]; [15]): 19,784 delta cpm
- Spleen cell proliferation, HIV Peptide 10 μg/ml (spleen cells [6]; [15]): 25,821 delta cpm
- Spleen cell proliferation index normalized to ConA, Con A 5 μg/ml (spleen cells [6]; Experiment 2, 96 hours culture): 99.0
- Spleen cell proliferation index normalized to ConA, HIV Peptide 1.1 μg/ml (spleen cells [6]; [16]): 1.6
- Spleen cell proliferation index normalized to ConA, HIV Peptide 3.3 μg/ml (spleen cells [6]; [16]): 2.7
- Spleen cell proliferation index normalized to ConA, HIV Peptide 10 μg/ml (spleen cells [6]; [16]): 6.8
- Spleen cell proliferation index normalized to ConA, Lysozyme 10 μg/ml (spleen cells [6]; [16]): 0.1
